The values that follow come from the RNAGym collection of RNA variant scans (doi:10.7554/elife.80360).

First the molecules themselves.
B1: Hairpin Ribozyme (parent)
chain: GUCCUCUUUCACGUGCGCGUGAAAGAGAGAAGUGAACCAGAGAAACACACGUUGUGGUAUAUUACCUGGUA

Variants of B1 are the subject of the data set. Put plainly: self-cleavage, relative activity (ratio to wild type); higher = more cleavage; co-transcriptional.
C66A U67G: the self-cleavage was determined as 0.091. For C3U A31G, the self-cleavage was 0.296. Turning to G15U C50U, the self-cleavage was found to be 0.49.

With A11G G69C, the self-cleavage was determined as 0.267. Under A11G G40C stands 0.188; under A49U U58A, 0.187; under G34U A39C, 0.857.

As to A44U C48U, the self-cleavage came out at 0.15. On to U53C U58C, for which the self-cleavage was 1.26. For A30G C48G, the self-cleavage was 0.0877. In the case of C50U A59G, the self-cleavage came to 0.204. Consider A31C A64G, for which the self-cleavage was 0.0732.

On to G34A A36C, for which the self-cleavage came out at 0.956. G19C G68A: the self-cleavage came out at 0.276.

On to A30U U53G, for which the self-cleavage was 0.277. As to G1A G68A, the self-cleavage worked out at 0.21.

In the case of A47C U67G, the self-cleavage was 0.123. The same measure for U60A A71U: 0.616; for A22G C46A: 0.171. In the case of U7C A71U, the self-cleavage came to 0.592. Regarding A35G G54U, the self-cleavage came to 0.513. Under C18A G57A stands 0.209. Regarding U33A C38A, the self-cleavage is 0.13. With G13U U55A, the self-cleavage was determined as 0.263. For U33C C37G, the self-cleavage was 0.0717.

As for G29A G54A, the self-cleavage worked out at 0.141. For U14G A49C, the self-cleavage turned out to be 0. On to C4G G17A, for which the self-cleavage was 0.159. For the variant C37U G56C, the self-cleavage amounted to 0.198.

For the variant G25C C46G, the self-cleavage is 0.115. For the variant A45U C50A, the self-cleavage stood at 0.145. Under A30G A71U stands 0.225. For U5A C10A, the self-cleavage came out at 0.188.

For C3G A49C, the self-cleavage turned out to be 0.0939. A11U A26G: the self-cleavage was determined as 0.751. Consider U20G G25U, for which the self-cleavage was 0.64. Consider A35G U67G, for which the self-cleavage was determined as 0.206. For the variant U53C A59C, the self-cleavage came out at 0.217. Consider A31C G68U, for which the self-cleavage worked out at 0.122. Under A43U U63C stands 0.219; under A35C A36C, 0.517; under G32A U63C, 0.0959. With G1A U8G, the self-cleavage came to 0.158. In the case of G21U C46A, the self-cleavage stood at 0.0942. The same measure for C4G U9C: 0.274; for A26U G40U: 0.131; for A35C A41G: 0.907. Turning to U2C C3A, the self-cleavage worked out at 0.114. The same measure for G13U C18A: 0.915; for A26G A28G: 1.12.

As for U33G A41U, the self-cleavage was found to be 0.251. Consider U62G U63G, for which the self-cleavage came to 0.191. The same measure for C6A A71G: 0.606; for A24G U33C: 0.125; for A35U A41U: 1.41. Consider U7G C18A, for which the self-cleavage came to 1.01. Take A11C A44U: the self-cleavage came to 0.155. With G27C A36G, the self-cleavage amounted to 0.14. In the case of A28C C50U, the self-cleavage amounted to 0.168. Under C12U G27U stands 0.199. Take C4A G15U: the self-cleavage came to 0.182. As for C4A G15A, the self-cleavage is 0.227. Turning to U5A G54A, the self-cleavage came to 0.192. As for U62A G68C, the self-cleavage was found to be 0.156.

On to U14C G40C, for which the self-cleavage came out at 0.156. On to C12U U55C, for which the self-cleavage was found to be 0.218. Turning to U8C A64G, the self-cleavage turned out to be 0.443. In the case of A45U U55G, the self-cleavage was determined as 0.0773. With U8C C65A, the self-cleavage came out at 0.788. In the case of G32C U53C, the self-cleavage is 0.155. As for A23U U55C, the self-cleavage turned out to be 0.358. Turning to A30C A64G, the self-cleavage is 0.0788. C16A U60G: the self-cleavage was found to be 0.451. The same measure for A26C A41U: 0.74; for G25C G29A: 0.13; for A35U A47G: 0.137.

For the variant G25U C38U, the self-cleavage came out at 0.332.

In the case of G1U C37U, the self-cleavage is 0.0964. As to G21C A30U, the self-cleavage was found to be 0.139.

Consider G1C C6A, for which the self-cleavage is 0.245. The same measure for G1A C16U: 0.217; for G13C U58C: 0.869. As to U20C A45U, the self-cleavage stood at 0.076. As to G1A A36G, the self-cleavage was determined as 0.088.

In the case of C16U U20A, the self-cleavage was determined as 0.817.

On to C10G G68C, for which the self-cleavage stood at 0.199. On to A11G A41U, for which the self-cleavage was 1.14. C6A A39C: the self-cleavage was found to be 0.436. On to A39U G56A, for which the self-cleavage is 0.114. As to C10A C65A, the self-cleavage amounted to 0.556. With A22U C50U, the self-cleavage came out at 0.342. Turning to A24C C48U, the self-cleavage was 0.216.

In the case of A41U C65A, the self-cleavage came to 0.756.

For C18U G29C, the self-cleavage came out at 0.116.

Turning to A23C C37A, the self-cleavage stood at 0.18. The same measure for G27A A31C: 0.193. With A41G G69C, the self-cleavage worked out at 0.534.

Turning to G13C A43U, the self-cleavage is 0.0989. The same measure for U9C A36C: 0.491; for A23U G29A: 0.145; for G17A G34C: 1.3. Turning to A45U G57C, the self-cleavage worked out at 0.15. As for G34A U52C, the self-cleavage is 0.857. For G27C A39C, the self-cleavage turned out to be 0.0945. Turning to U8G A31G, the self-cleavage stood at 0.47. As for C50U G51A, the self-cleavage came out at 0.322. The same measure for A35C G56U: 0.153; for U2A G32A: 0.0985; for U58C U67A: 0.231. Turning to C10U G15U, the self-cleavage came to 0.843. As to U53G A71U, the self-cleavage was 0.635. With A39G G40A, the self-cleavage worked out at 0.102. Under A28C A41G stands 0.352; under U20C A41G, 0.886. A28G A39C: the self-cleavage was found to be 0.748. Consider C6A G51C, for which the self-cleavage came to 0.531.

As to A23G U52G, the self-cleavage was determined as 0.78. Regarding U20G G27U, the self-cleavage was found to be 0.154. Take U9C A44G: the self-cleavage amounted to 0.19.

On to G40C A59C, for which the self-cleavage was found to be 0.0991.

As for A24G U53C, the self-cleavage was 0.881.

Take G1C C65U: the self-cleavage is 0.188. For U5C A11G, the self-cleavage worked out at 0.481. Turning to G29U G40U, the self-cleavage amounted to 0.147.

Take G21U U52A: the self-cleavage is 0.806. In the case of A39U C66G, the self-cleavage was found to be 0.135. Take C4G A47U: the self-cleavage is 0.0972. Turning to U9C A45U, the self-cleavage is 0.0912. For G25U G51C, the self-cleavage was found to be 0.589. As for A30C G51C, the self-cleavage came out at 0.0477. Consider G34A U60C, for which the self-cleavage was 1.5. Under A26G C66A stands 0.171; under A36U A49C, 0.214.

Consider C10A A39C, for which the self-cleavage was determined as 0.463. On to U53G G54U, for which the self-cleavage was 0.49. For C6G A44U, the self-cleavage was 0.148. In the case of C48A G56A, the self-cleavage amounted to 0.135. As for U2G A36U, the self-cleavage is 0.318.

As to U2A U52G, the self-cleavage is 0.203. Take A23C A28G: the self-cleavage was 0.977.

Turning to G13C A24C, the self-cleavage came out at 0.466. Take C3U G42U: the self-cleavage stood at 0.21. Consider U20A A31C, for which the self-cleavage is 0.21. For the variant U8G A64U, the self-cleavage turned out to be 0.146.

U33C C46G: the self-cleavage amounted to 0.187.

For the variant A11G A49U, the self-cleavage came out at 0.208. For the variant U33C G54U, the self-cleavage was found to be 0.141. For A41C U60C, the self-cleavage was 1.27. The same measure for G57C U58C: 0.258; for G42C U63C: 0.148; for U5C C65G: 0.0463. For A24G A47G, the self-cleavage stood at 0.191. The same measure for C6U C16G: 0.65. Turning to U58G U63A, the self-cleavage is 0.149. Regarding A39U C50G, the self-cleavage is 0.0689. On to G1A C37G, for which the self-cleavage was determined as 0.187.

On to C65U G69U, for which the self-cleavage amounted to 0.279. Consider C10U U33C, for which the self-cleavage was 0.0734. Regarding U8G U55A, the self-cleavage was found to be 0.193.

Turning to G27U C65G, the self-cleavage was 0.188.

In the case of C6G A26G, the self-cleavage was determined as 0.203. The same measure for G1U U53G: 0.227; for U33A A39C: 0.105; for G51A U62C: 0.364. Consider G51A U62A, for which the self-cleavage amounted to 0.137.

As for G34C A39U, the self-cleavage was determined as 1.02.

Regarding A36C C46G, the self-cleavage worked out at 0.134.
